Experimental data published in the RNAGym collection of RNA variant scans (doi:10.1021/acssynbio.7b00057).

B1: Pistol ribozyme (parent)
chain: GGGUCGUUGUUCCAUAAUCGCGUGGAUAUGGCACGCAAGUUUCUACCGGGCACCGUAAAUGUCCGACUGGAGCCGUUCGGGCGGCUAUAAACAGACCUCAGGCCCGAAGCGUGGCGGCACCUGCCGCCGGUGGUAAAAAAGAUCGGAAGAGCACACGUCU

Variants of: B1
Assay: aptazyme ON/OFF ratio, guanine; higher = stronger switching; co-transcriptional cleavage with and without guanine

Variant | aptazyme ON/OFF ratio
GGGUCGGAACACCAUAAUCGCGUGGAUAUGGCACGCAAGUUUCUACCGGGCACCGUAAAUGUCCGACUGGAGCCGUUCGGGCGGCUAUAAACAGACCUCAGGCCCGAAGCGUGGCGGCACCUGCCGCCGGUGGUAAAAAAGAUCGGAAGAGCACACGUCU [U7G U8A G9A U10C U11A] | 1.4
GGGUCGGAACUGCAUAAUCGCGUGGAUAUGGCACGCAAGUUUCUACCGGGCACCGUAAAUGUCCGACUGGAGCCGUUCGGGCGGCUAUAAACAGACCUCAGGCCCGAAGCGUGGCGGCACCUGCCGCCGGUGGUAAAAAAGAUCGGAAGAGCACACGUCU [U7G U8A G9A U10C C12G] | 1.15
GGGUCGGAACUUCAUAAUCGCGUGGAUAUGGCACGCAAGUUUCUACCGGGCACCGUAAAUGUCCGACUGGAGCCGUUCGGGCGGCUAUAAACAGACCUCAGGCCCGAAGCGUGGCGGCACCUGCCGCCGGUGGUAAAAAAGAUCGGAAGAGCACACGUCU [U7G U8A G9A U10C C12U] | 1.09
GGGUCGGAACAAUAUAAUCGCGUGGAUAUGGCACGCAAGUUUCUACCGGGCACCGUAAAUGUCCGACUGGAGCCGUUCGGGCGGCUAUAAACAGACCUCAGGCCCGAAGCGUGGCGGCACCUGCCGCCGGUGGUAAAAAAGAUCGGAAGAGCACACGUCU [U7G U8A G9A U10C U11A C12A C13U] | 1.13
GGGUCGGAACAAGAUAAUCGCGUGGAUAUGGCACGCAAGUUUCUACCGGGCACCGUAAAUGUCCGACUGGAGCCGUUCGGGCGGCUAUAAACAGACCUCAGGCCCGAAGCGUGGCGGCACCUGCCGCCGGUGGUAAAAAAGAUCGGAAGAGCACACGUCU [U7G U8A G9A U10C U11A C12A C13G] | 1.07
GGGUCGGAACAAAAUAAUCGCGUGGAUAUGGCACGCAAGUUUCUACCGGGCACCGUAAAUGUCCGACUGGAGCCGUUCGGGCGGCUAUAAACAGACCUCAGGCCCGAAGCGUGGCGGCACCUGCCGCCGGUGGUAAAAAAGAUCGGAAGAGCACACGUCU [U7G U8A G9A U10C U11A C12A C13A] | 1.2
GGGUCGGAACAACAUAAUCGCGUGGAUAUGGCACGCAAGUUUCUACCGGGCACCGUAAAUGUCCGACUGGAGCCGUUCGGGCGGCUAUAAACAGACCUCAGGCCCGAAGCGUGGCGGCACCUGCCGCCGGUGGUAAAAAAGAUCGGAAGAGCACACGUCU [U7G U8A G9A U10C U11A C12A] | 1.12
GGGUCGGAACUAUAUAAUCGCGUGGAUAUGGCACGCAAGUUUCUACCGGGCACCGUAAAUGUCCGACUGGAGCCGUUCGGGCGGCUAUAAACAGACCUCAGGCCCGAAGCGUGGCGGCACCUGCCGCCGGUGGUAAAAAAGAUCGGAAGAGCACACGUCU [U7G U8A G9A U10C C12A C13U] | 1.08
GGGUCGGAACUAGAUAAUCGCGUGGAUAUGGCACGCAAGUUUCUACCGGGCACCGUAAAUGUCCGACUGGAGCCGUUCGGGCGGCUAUAAACAGACCUCAGGCCCGAAGCGUGGCGGCACCUGCCGCCGGUGGUAAAAAAGAUCGGAAGAGCACACGUCU [U7G U8A G9A U10C C12A C13G] | 1.06
GGGUCGGAACUUAAUAAUCGCGUGGAUAUGGCACGCAAGUUUCUACCGGGCACCGUAAAUGUCCGACUGGAGCCGUUCGGGCGGCUAUAAACAGACCUCAGGCCCGAAGCGUGGCGGCACCUGCCGCCGGUGGUAAAAAAGAUCGGAAGAGCACACGUCU [U7G U8A G9A U10C C12U C13A] | 1.08
GGGUCGGAACUUUAUAAUCGCGUGGAUAUGGCACGCAAGUUUCUACCGGGCACCGUAAAUGUCCGACUGGAGCCGUUCGGGCGGCUAUAAACAGACCUCAGGCCCGAAGCGUGGCGGCACCUGCCGCCGGUGGUAAAAAAGAUCGGAAGAGCACACGUCU [U7G U8A G9A U10C C12U C13U] | 1.12
GGGUCGGAACUUGAUAAUCGCGUGGAUAUGGCACGCAAGUUUCUACCGGGCACCGUAAAUGUCCGACUGGAGCCGUUCGGGCGGCUAUAAACAGACCUCAGGCCCGAAGCGUGGCGGCACCUGCCGCCGGUGGUAAAAAAGAUCGGAAGAGCACACGUCU [U7G U8A G9A U10C C12U C13G] | 1.07
GGGUCGGAACUCGAUAAUCGCGUGGAUAUGGCACGCAAGUUUCUACCGGGCACCGUAAAUGUCCGACUGGAGCCGUUCGGGCGGCUAUAAACAGACCUCAGGCCCGAAGCGUGGCGGCACCUGCCGCCGGUGGUAAAAAAGAUCGGAAGAGCACACGUCU [U7G U8A G9A U10C C13G] | 1.07
GGGUCGGAACUCUAUAAUCGCGUGGAUAUGGCACGCAAGUUUCUACCGGGCACCGUAAAUGUCCGACUGGAGCCGUUCGGGCGGCUAUAAACAGACCUCAGGCCCGAAGCGUGGCGGCACCUGCCGCCGGUGGUAAAAAAGAUCGGAAGAGCACACGUCU [U7G U8A G9A U10C C13U] | 1.13
GGGUCGGAACUCAAUAAUCGCGUGGAUAUGGCACGCAAGUUUCUACCGGGCACCGUAAAUGUCCGACUGGAGCCGUUCGGGCGGCUAUAAACAGACCUCAGGCCCGAAGCGUGGCGGCACCUGCCGCCGGUGGUAAAAAAGAUCGGAAGAGCACACGUCU [U7G U8A G9A U10C C13A] | 1.09
GGGUCGGAACUGUAUAAUCGCGUGGAUAUGGCACGCAAGUUUCUACCGGGCACCGUAAAUGUCCGACUGGAGCCGUUCGGGCGGCUAUAAACAGACCUCAGGCCCGAAGCGUGGCGGCACCUGCCGCCGGUGGUAAAAAAGAUCGGAAGAGCACACGUCU [U7G U8A G9A U10C C12G C13U] | 1.28
GGGUCGGAACUGAAUAAUCGCGUGGAUAUGGCACGCAAGUUUCUACCGGGCACCGUAAAUGUCCGACUGGAGCCGUUCGGGCGGCUAUAAACAGACCUCAGGCCCGAAGCGUGGCGGCACCUGCCGCCGGUGGUAAAAAAGAUCGGAAGAGCACACGUCU [U7G U8A G9A U10C C12G C13A] | 1.11
GGGUCGGAACUGGAUAAUCGCGUGGAUAUGGCACGCAAGUUUCUACCGGGCACCGUAAAUGUCCGACUGGAGCCGUUCGGGCGGCUAUAAACAGACCUCAGGCCCGAAGCGUGGCGGCACCUGCCGCCGGUGGUAAAAAAGAUCGGAAGAGCACACGUCU [U7G U8A G9A U10C C12G C13G] | 1.11
